Measured values: the supplement of paper PMC7877785
± gives the uncertainty stated by the source.

Test: self-splicing fitness, log relative to wild type (ln ratio); higher = more splicing; Tetrahymena group I intron in knt gene, E. coli kanamycin selection, DiMSum; sequences stand for … in CUCUCU…GGAGGGAAAAGUUAUCAGGCAUGCACCUGGUAGCUAGUCUUUAAACCAAUAGAUUGCAUCGGUUUAAAAGGCAAGACCGUCAAAUUGCGGGAAAGGGGUCAACAGCCGUUCAGUACCAAGUCUCAGGGGAAACUUUGAGAUGGCCUUGCAAAGGGUAUGGUAAUAAGCUGACGGACAUGGUCCUAACCACGCAGCCAAGUCCUAAGUCAACAGAUCUUCUGUUGAUAUGGAUGCAGUUCACAGACUAAAUGUCGGUCGGGGAAGAUGUAUUCUUCUCAUAAGAUAUAGUCGGACCUCUCCUUAAUGGGAGCUAGCGGAUGAAGUGAUGCAACACUGGAGCCGCUGGGAACUAAUUUGUAUGCGAAAGUAUAUUGAUUAGUUUUGGAGUACUCGUGGUCG
Procedure, shortened: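 Six replicate transformations of E. coli BL21(DE3) with a pET-22b(+) library were grown overnight at 37°C or 30°C. The library randomised all eight P1ex-region intron nucleotides, the intron lying in the knt kanamycin-resistance gene, and plates were LB agar with or without 25 μg/mL kanamycin plus 100 μg/mL carbenicillin, 50 μM IPTG and 0.2% rhamnose. Pooled colonies were amplicon-sequenced on an Illumina HiSeq 2500, and fitness is the DiMSum error-weighted combination of wild-type-normalised replicate fold changes, kanamycin versus none.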

Sequence | self-splicing fitness (ln) (30 °C) | self-splicing fitness (ln) (37 °C)
UUUCAGCAAUAUUACGUCCU | -2.99 ± 0.42 | -1.32 ± 0.28
UUUCAGCAAUAUUACGUGCA | -0.77 ± 0.13 | 0.0542 ± 0.17
UUUCAGCAAUAUUACGUGCG | -1.27 ± 0.12 | 0.0636 ± 0.11
UUUGAGCAAUAUUACGACGG | -0.966 ± 0.16 | -0.751 ± 0.23
UUUGAGCAAUAUUACGAUAG | -2.09 ± 0.19 | -1.87 ± 0.23
UUUGAGCAAUAUUACGAUGA | -0.96 ± 0.19 | -0.161 ± 0.21
UUUGAGCAAUAUUACGCGCG | -1.85 ± 0.13 | -0.956 ± 0.19
UUUGAGCAAUAUUACGCGUA | – | 0.0632 ± 0.24
UUUGAGCAAUAUUACGCUCA | -3.33 ± 0.41 | -1.6 ± 0.41
UUUGAGCAAUAUUACGCUCG | -3.8 ± 0.4 | -2.01 ± 0.34
UUUGAGCAAUAUUACGCUGC | -3.12 ± 0.47 | –
UUUGAGCAAUAUUACGGACA | – | -2.57 ± 0.48
UUUGAGCAAUAUUACGGACG | -2.51 ± 0.24 | -2.71 ± 0.31
UUUGAGCAAUAUUACGGCAA | -1.72 ± 0.18 | -0.742 ± 0.22
UUUGAGCAAUAUUACGGCCA | – | -1.17 ± 0.46
UUUGAGCAAUAUUACGGUAG | -2.82 ± 0.39 | -2.41 ± 0.36
UUUGAGCAAUAUUACGGUGA | -2.07 ± 0.15 | -2.46 ± 0.18
UUUGAGCAAUAUUACGGUUA | -2 ± 0.17 | -1.57 ± 0.15
UUUGAGCAAUAUUACGUAAA | -1.16 ± 0.15 | -1.45 ± 0.2
UUUGAGCAAUAUUACGUAAG | -1.29 ± 0.056 | -0.487 ± 0.078

Sequence | self-splicing fitness (ln) (30 °C) | self-splicing fitness (ln) (37 °C)
UUUGAGCAAUAUUACGUAGG | -2.52 ± 0.16 | -1.32 ± 0.23
UUUGAGCAAUAUUACGUAUU | -3.89 ± 0.27 | -2.46 ± 0.21
UUUGAGCAAUAUUACGUUUG | -3.29 ± 0.26 | -2 ± 0.31
UUUUAGCAAUAUUACGAAAG | -2.72 ± 0.2 | -0.437 ± 0.15
UUUUAGCAAUAUUACGAGCU | -2.57 ± 0.33 | -2.22 ± 0.31
UUUUAGCAAUAUUACGAUAA | -0.659 ± 0.14 | 0.144 ± 0.15
UUUUAGCAAUAUUACGCAAU | -2.98 ± 0.41 | –
UUUUAGCAAUAUUACGCCGU | -2.64 ± 0.32 | -2.8 ± 0.44
UUUUAGCAAUAUUACGCGGA | -2 ± 0.17 | -1.44 ± 0.17
UUUUAGCAAUAUUACGCGGU | – | -1.53 ± 0.45
UUUUAGCAAUAUUACGCUGA | -1.89 ± 0.36 | -2.31 ± 0.39
UUUUAGCAAUAUUACGCUUC | – | -1.81 ± 0.34
UUUUAGCAAUAUUACGGCAU | -2.8 ± 0.41 | -0.972 ± 0.29
UUUUAGCAAUAUUACGGCCG | -0.37 ± 0.24 | –
UUUUAGCAAUAUUACGGGAU | -3.93 ± 0.32 | -1.48 ± 0.17
UUUUAGCAAUAUUACGUCAC | -2.38 ± 0.37 | –
UUUUAGCAAUAUUACGUCUG | -0.654 ± 0.14 | -0.153 ± 0.16
UUUUAGCAAUAUUACGUGUU | -4.5 ± 0.46 | -3.09 ± 0.24
UUUUAGCAAUAUUACGUUAG | -1.37 ± 0.13 | -2.02 ± 0.21
